Assay results published in US20250236663A1 (NEURACLE SCIENCE, published 2025).
Read-outs that look alike come from different tables or passages of the source.

T1: FAM19A5 mutant M6 (human)
T1 construct: FAM19A5 with region 6 replaced by the consensus of FAM19A1-4; The entry already carries the changes
T1 chain: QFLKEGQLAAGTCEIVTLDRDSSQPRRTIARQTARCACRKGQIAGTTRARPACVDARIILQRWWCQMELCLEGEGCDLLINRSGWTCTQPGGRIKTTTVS

T2: FAM19A5 mutant M8 (human)
T2 construct: FAM19A5 with region 8 replaced by the consensus of FAM19A1-4; The entry already carries the changes
T2 chain: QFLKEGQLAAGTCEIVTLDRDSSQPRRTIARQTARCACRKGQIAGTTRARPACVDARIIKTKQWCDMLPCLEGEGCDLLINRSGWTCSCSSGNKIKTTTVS

T3: FAM19A5-M1
T3 construct: also called FAM19A5 mutant M1
T3 FAM19A5 mutant: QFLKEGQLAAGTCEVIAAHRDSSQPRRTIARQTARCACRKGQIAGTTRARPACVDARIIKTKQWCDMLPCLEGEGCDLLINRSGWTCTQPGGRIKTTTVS

T4: FAM19A5-M2
T4 construct: also called FAM19A5 mutant M2
T4 FAM19A5 mutant: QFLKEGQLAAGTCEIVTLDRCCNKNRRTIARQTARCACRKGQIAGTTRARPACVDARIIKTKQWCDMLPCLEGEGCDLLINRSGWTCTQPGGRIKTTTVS

T5: FAM19A5-M3
T5 construct: also called FAM19A5 mutant M3
T5 FAM19A5 mutant: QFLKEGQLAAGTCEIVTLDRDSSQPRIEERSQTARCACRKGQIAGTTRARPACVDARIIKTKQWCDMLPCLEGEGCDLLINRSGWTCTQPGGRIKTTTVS

T6: FAM19A5-M4
T6 construct: also called FAM19A5 mutant M4
T6 FAM19A5 mutant: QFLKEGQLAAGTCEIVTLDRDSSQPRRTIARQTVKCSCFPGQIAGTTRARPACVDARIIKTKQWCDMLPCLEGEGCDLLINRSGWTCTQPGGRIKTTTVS

T7: FAM19A5-M5
T7 construct: also called FAM19A5 mutant M5
T7 FAM19A5 mutant: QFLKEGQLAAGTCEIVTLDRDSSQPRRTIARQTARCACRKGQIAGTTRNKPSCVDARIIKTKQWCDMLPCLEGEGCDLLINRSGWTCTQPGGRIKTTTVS

T8: FAM19A5 mutant M7 (human)
T8 construct: FAM19A5 with region 7 replaced by the consensus of FAM19A1-4; The entry already carries the changes
T8 chain: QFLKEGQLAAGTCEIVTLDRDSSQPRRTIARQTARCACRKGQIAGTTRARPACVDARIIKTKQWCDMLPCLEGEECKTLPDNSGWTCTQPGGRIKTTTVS


Assays:
FAM19A5 mutant M6 [1] = molecular target: T1, FAM19A5 mutant M6; test: ELISA on phage-displayed FAM19A5 mutants; y axis without label
FAM19A5 mutant M8 [2] = molecular target: T2, FAM19A5 mutant M8; test: as above
FAM19A5-M1 [3] = molecular target: T3, FAM19A5-M1; test: ELISA on phage-displayed FAM19A5 mutants; y axis without label; no blank in the panel
FAM19A5-M2 [4] = molecular target: T4, FAM19A5-M2; test: as above
FAM19A5-M3 [5] = molecular target: T5, FAM19A5-M3; test: as above
FAM19A5-M4 [6] = molecular target: T6, FAM19A5-M4; test: as above
FAM19A5-M5 [7] = molecular target: T7, FAM19A5-M5; test: as above
FAM19A5 mutant M7 [8] = molecular target: T8, FAM19A5 mutant M7; test: as above
FAM19A5 mutant M6 [9] = molecular target: T1, FAM19A5 mutant M6; test: ELISA on phage-displayed FAM19A5 mutants; y axis without label
FAM19A5 mutant M7 [10] = molecular target: T8, FAM19A5 mutant M7; test: as above
FAM19A5 mutant M8 [11] = molecular target: T2, FAM19A5 mutant M8; test: as above
FAM19A5-M1 [12] = molecular target: T3, FAM19A5-M1; test: ELISA on phage-displayed FAM19A5 mutants; y axis without label; no blank in the panel, lowest bars about 0.05
FAM19A5-M2 [13] = molecular target: T4, FAM19A5-M2; test: as above
FAM19A5-M3 [14] = molecular target: T5, FAM19A5-M3; test: as above
FAM19A5-M4 [15] = molecular target: T6, FAM19A5-M4; test: as above
FAM19A5-M5 [16] = molecular target: T7, FAM19A5-M5; test: as above

binding result (FAM19A5 mutant M6 [1])	binding result (FAM19A5 mutant M8 [2])	binding result (FAM19A5-M1 [3])	binding result (FAM19A5-M2 [4])	binding result (FAM19A5-M3 [5])	binding result (FAM19A5-M4 [6])	binding result (FAM19A5-M5 [7])	binding result (FAM19A5 mutant M7 [8])	binding result (FAM19A5 mutant M6 [9])	binding result (FAM19A5 mutant M7 [10])	binding result (FAM19A5 mutant M8 [11])	binding result (FAM19A5-M1 [12])	binding result (FAM19A5-M2 [13])	binding result (FAM19A5-M3 [14])	binding result (FAM19A5-M4 [15])	binding result (FAM19A5-M5 [16])	Binder
no binding	no binding	binds	binds	binds	binds	binds	binds									Anti-FAM19A5 (13B4) (antibody, V domains shown, Only variable domains are tied to the name) VH: QVQLQESGPGLVKPSGTLSLNCAVSGGSISSSNWWSWVRQPPGKGLEWIGEIYHGGTTNYNPSLKGRVTMSVDKTKNQFSLRLSSVTAVDTAVYYCARWQLVGGLDVWGQGTTVTVSS VL: SYELTQPLSVSVSPGQTASITCSGDKLGNVYASWYQQKPGQSPTLVIYQDNKRPSGIPERFSGSNSGKTATLTISGTQALDEADYYCQAWDSSTAVFGGGTKLTVL
								no binding	no binding	no binding	binds	binds	binds	binds	binds	Anti-FAM19A5 (P2-A03) (antibody, V domains shown, Only variable domains are tied to the name) VH: QSVEESGGRLVTPGTPLTLTCTVSGFSLNNYDMSWVRQAPGKGLEYIGFMDTDGSAYYATWAKGRFTISRTSTTVDLKMTSPTTEDTATYFCARRGSSYYGGIDIWGPGTPVTVSL VL: ELDLTQTPASVSEPVGGTVTIKCQASQSIGGNLAWYQQKPGQPPKLLIYRASTLASGVPSRFKGSGSGTDFTLTISDLECADAATYYCQSPAYDPAAYVGNAFGGGTELEIL
